Test results from patent US20260374739A1, “SMALL MOLECULAR WEIGHT CHEMICAL COMPOUND TO ANTAGONIZE EPH-EPHRIN TETRAMERIZATION AND INHIBIT BIDIRECTIONAL SIGNALING” (THE BOARD OF REGENTS OF THE UNIVERSITY OF TEXAS SYSTEM, priority 2022, published 2026).
Like-named read-outs stand apart in the source and are kept apart here.

Assays:
human EphrinB3 = experiment: Octet binding kinetics, EphB to immobilized human EphrinB3; conditions: for Kd: 2:1 fit
Description: (§1) Studies were conducted to confirm that A20 chemicals can effectively target the human Eph/Ephrin proteins. Octet system was used to first characterize the biophysical interactions of the human B class Eph and Ephrin proteins, and then was tested to assess how A20 may disrupt the interactions. Since the human and rodent proteins are highly conserved, and essentially identical, with EphB2 sharing 99.5% identity between human and mouse, with only 5 of ~1,000 amino acids different, any species-specific differences were not anticipated. Therefore, commercially available human EphrinB1-Fc (EB1), EphrinB2-Fc (EB2), and EphrinB3-Fc (EB3) ectodomain proteins were sparsely immobilized onto biosensors and then exposed to 50 nM of soluble human EphB1-His, EphB2-His, and EphB4-His ectodomains for 800 sec association and 1,000 sec dissociation steps with a total of nine different interactions analyzed. In the absence of A20 chemical, the immobilized human EphrinB proteins bound to their appropriate human EphB target proteins; with EphrinB1 only bound EphB1 and EphB2, EphrinB2 bound all three EphB1, EphB2, and EphB4, and EphrinB3 only bound EphB1 and EphB2 (FIG. 19A-19B).
(§2) While the binding kinetics described above for the various human EphB-EphrinB interactions are complicated and show clear differences, all are extremely high affinity interactions with KD values in the low nanomolar to picomolar range (Table 2). Octet software allows for detailed biophysical analysis of the sensorgram data and first attempts to fit the information to equations that follow rather standard binding characteristics, most typified by either a classic 1:1 binding type interaction (like formation of a simple receptor-ligand dimer) or something more complex/heterologous involving 2:1 binding type interactions (like Eph-Ephrin dimer and tetramer). Based on the information contained in the sensorgram run under analysis, the Octet software will attempt to draw curves to fit the data to 1:1 and 2:1 binding equations. […] The resulting curve fits are not always perfect, especially for such complex interactions as the Eph/Ephrin system. As such, while the EphB2-EB2 and EphB4-EB2 data fit a 2:1 curve fairly well, the EphB1-EB2 interaction fits neither 1:1 or 2:1 well and the R2 values of this interaction reflects this. The interaction of EB1 with its two target proteins is more divergent. […] The EphB1-EB3 and EphB2-EB3 interactions are like that for EphB1-EB1, clear 1:1 curve fits with a slow gradual on rate of association followed by no off rate in dissociation.

human EphrinB2 = experiment: Octet binding kinetics, EphB to immobilized human EphrinB2
Description: as §1, §2

human EphrinB1 = experiment: Octet binding kinetics, EphB to immobilized human EphrinB1
Description: as §1, §2

[1] = 2:1 fit, in parentheses R2 value, read-out: KD2
[2] = in parentheses R2 value, read-out: KD

B1: EphB2: soluble human EphB2-His ectodomain (protein, UniProt P29323 19-543, looked up)
extracellular domain: VEETLMDSTTATAELGWMVHPPSGWEEVSGYDENMNTIRTYQVCNVFESSQNNWLRTKFIRRRGAHRIHVEMKFSVRDCSSIPSVPGSCKETFNLYYYEADFDSATKTFPNWMENPWVKVDTIAADESFSQVDLGGRVMKINTEVRSFGPVSRSGFYLAFQDYGGCMSLIAVRVFYRKCPRIIQNGAIFQETLSGAESTSLVAARGSCIANAEEVDVPIKLYCNGDGEWLVPIGRCMCKAGFEAVENGTVCRGCPSGTFKANQGDEACTHCPINSRTTSEGATNCVCRNGYYRADLDPLDMPCTTIPSAPQAVISSVNETSLMLEWTPPRDSGGREDLVYNIICKSCGSGRGACTRCGDNVQYAPRQLGLTEPRIYISDLLAHTQYTFEIQAVNGVTDQSPFSPQFASVNITTNQAAPSAVSIMHQVSRTVDSITLSWSQPDQPNGVILDYELQYYEKELSEYNATAIKSPTNTVTVQGLKAGAIYVFQVRARTVAGYGRYSGKMYFQTMTEAEYQTSIQEKLPL
modifications: extracellular domain His tag
notes: soluble human EphB2-His ectodomain
Question: Which Kd (human EphrinB3; in parentheses R2 value, read-out: KD2) does the source give for B1 here?
Answer: 0.0018 nM

Question: What about the Kd (human EphrinB3; read-out: KD1) of the same molecule?
Answer: 0.0018 nM

Question: What about the Kd (human EphrinB2; [1]) of the same molecule?
Answer: 16.8 nM

Question: And the Kd (human EphrinB2; 2:1 fit, read-out: KD1)?
Answer: 5.9 nM

Question: And the Kd (human EphrinB2; [2])?
Answer: 4.84 nM

Question: What about the Kd (human EphrinB1; [1]) of the same molecule?
Answer: 40 nM

Question: What about the Kd (human EphrinB1; 2:1 fit, read-out: KD1) of the same molecule?
Answer: 41 nM

Question: And the Kd (human EphrinB1; [2])?
Answer: 8.57 nM

B2: EphB4: soluble human EphB4-His ectodomain (protein, UniProt P54760 16-539, looked up)
extracellular domain: LEETLLNTKLETADLKWVTFPQVDGQWEELSGLDEEQHSVRTYEVCDVQRAPGQAHWLRTGWVPRRGAVHVYATLRFTMLECLSLPRAGRSCKETFTVFYYESDADTATALTPAWMENPYIKVDTVAAEHLTRKRPGAEATGKVNVKTLRLGPLSKAGFYLAFQDQGACMALLSLHLFYKKCAQLTVNLTRFPETVPRELVVPVAGSCVVDAVPAPGPSPSLYCREDGQWAEQPVTGCSCAPGFEAAEGNTKCRACAQGTFKPLSGEGSCQPCPANSHSNTIGSAVCQCRVGYFRARTDPRGAPCTTPPSAPRSVVSRLNGSSLHLEWSAPLESGGREDLTYALRCRECRPGGSCAPCGGDLTFDPGPRDLVEPWVVVRGLRPDFTYTFEVTALNGVSSLATGPVPFEPVNVTTDREVPPAVSDIRVTRSSPSSLSLAWAVPRAPSGAVLDYEVKYHEKGAEGPSSVRFLKTSENRAELRGLKRGASYLVQVRARSEAGYGPFGQEHHSQTQLDESEGWREQLA
modifications: extracellular domain His tag
notes: soluble human EphB4-His ectodomain
Question: With B2 as the molecule, how does the “KD (binding in words)” value (human EphrinB3) read?
Answer: no binding

Question: And the Kd (human EphrinB2; [1])?
Answer: 42 nM

Question: What about the Kd (human EphrinB2; 2:1 fit, read-out: KD1) of the same molecule?
Answer: 0.35 nM

Question: What about the Kd (human EphrinB2; [2]) of the same molecule?
Answer: 1.8 nM

Question: What about the “KD (binding in words)” value (human EphrinB1) of the same molecule?
Answer: no binding
